Measured values published in paper PMC8062585, “Machine learning guided aptamer refinement and discovery”.

The binders below were run against T1, NGAL (UniProt P80188 21-198) (assay: bead-based fluorescence, 4-concentration estimate; PBSMCT: DPBS with 2.5 mM MgCl2, 0.9 mM CaCl2, 0.01% Tween 20; room temperature, 1 h; bound NGAL detected with iFluor 647 anti-His antibody (6 nM)). Details: protein: commercial; tags: C-terminal His-tag.
T1 sequence (P80188 21-198): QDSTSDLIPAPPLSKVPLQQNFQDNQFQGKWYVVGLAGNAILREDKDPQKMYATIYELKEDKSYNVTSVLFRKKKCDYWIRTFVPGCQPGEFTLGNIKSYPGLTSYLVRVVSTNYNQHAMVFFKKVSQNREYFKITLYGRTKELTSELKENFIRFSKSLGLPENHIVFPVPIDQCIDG

ACGTTTTTGGTGGATAGCAAATGCCAGGGCCCTTTTTTG (ssDNA, 5' biotin) [G12.1] and CAAGAGGATTTGGTGGATAGTAAATCTTTGCCTATCCAG (ssDNA, 5' biotin) [G13.1] cannot be ordered by Kd: < 16 nM for the first, < 16 nM for the second.

CAAGAGGATTTGGTGGATAGTAAATCTTTGCCTAT (ssDNA, 5' biotin) [G13.2] and ACGTTTTTGGTGGATAGCAAATGCCAGGGCCCTTT (ssDNA, 5' biotin) [G12.2] cannot be ordered by Kd: < 16 nM for the first, < 32 nM for the second.

ACGTTTTTGGTGGATAGCAAATGCCAGGGCC (ssDNA, 5' biotin) [G12.3] and GAGGATTTGGTGGATAGTAAATCTTTG (ssDNA, 5' biotin) [G13.4] cannot be ordered by Kd: < 32 nM for the first, < 8 nM for the second.

CAAGAGGATTTGGTGGATAGTAAATCTTTGC (ssDNA, 5' biotin) [G13.3] and ACGTTTTTGGTGGATAGCAAATGCCAG (ssDNA, 5' biotin) [G12.4] cannot be ordered by Kd: < 8 nM for the first, < 16 nM for the second.

AGAGGATTTGGTGGATAGTAAAT (ssDNA, 5' biotin) [G13.7] and TTTGGTGGATAGTAA (ssDNA, 5' biotin) [G13.12] cannot be ordered by Kd: < 16 nM for the first, < 256 nM for the second.

GTTTTTGGTGGATAGCAAA (ssDNA, 5' biotin) [G12.6] and AGAGGATTTGGTGGATAGT (ssDNA, 5' biotin) [G13.11] cannot be ordered by Kd: < 32 nM for the first, < 1020 nM for the second.

AAGAGGATTTGGTGGATAGTAAATCTT (ssDNA, 5' biotin) [G13.5] was tested, and the Kd was < 8 nM.

Same assay, conditions: protein: commercial; tags: C-terminal His-tag; hairpin (predicted)

ACGTTTTTGGTGGATAGCAAATG (ssDNA, 5' biotin) [G12.5 (G12_23)] and GAGGATTTGGTGGATAGTAAATC (ssDNA, 5' biotin) [G13.8 (G13_23)] cannot be ordered by Kd: < 16 nM for the first, < 8 nM for the second.

These binders were tested against T1, NGAL (assay: bead-based fluorescence binding (flow cytometry); PBSMCT: DPBS with 2.5 mM MgCl2, 0.9 mM CaCl2, 0.01% Tween 20; room temperature, 1 h; bound NGAL detected with iFluor 647 anti-His antibody (6 nM)). Details: protein: commercial; tags: C-terminal His-tag; hairpin (predicted).

In order of falling Kd:
1. ACGTTTTTGGTGGATAGCAAATG (ssDNA, 5' biotin) [G12.5 (G12_23)]  11 nM
2. GAGGATTTGGTGGATAGTAAATC (ssDNA, 5' biotin) [G13.8 (G13_23)]  1.5 nM
